{"source": "patent US8461305B2", "about": "“L-fucose α1→6 specific lectin” (J-Oil Mills, Inc., priority 2008, dated 2013)", "molecules": {"B1": {"name": "Aleuria aurantia lectin (protein)", "chain": "PTEFLYTSKIAAISWAATGGRQQRVYFQDLNGKIREAQRGGDNPWTGGSSQNVIGEAKLFSPLAAVTWKSAQGIQIRVYCVNKDNILSEFVYDGSKWITGQLGSVGVKVGSNSKLAALQWGGSESAPPNIRVYYQKSNGSGSSIHEYVWSGKWTAGASFGSTVPGTGIGATAIGPGRLRIYYQATDNKIREHCWDSNSWYVGGFSASASAGVSIAAISWGSTPNIRVYWQKGREELYEAAYGGSWNTPGQIKDASRPTPSLPDTFIAANSSGNIDISVFFQASGVSLQQWQWISGKGWSIGAVVPTGTPAGW"}, "B2": {"name": "Lens culinaris agglutinin (protein)", "chain 1": "TETTSFSITKFSPDQKNLIFQGDGYTTKGKLTLTKAVKSTVGRALYSTPIHIWDRDTGNVANFVTSFTFVIDAPSSYNVADEFTFFIAPVDTKPQTGGGYLGVFNSKEYDKTSQTVAVEFDTFYNAAWDPSNKERHIGIDVNSIKSVNTKSWNLQNGERANVVIAFNAATNVLTVTLTYP", "chain 2": "VTSYTLNEVVPLKDVVPEWVRIGFSATTGAEFAAHEVHSWSFHSELGGTSSS"}}, "key": {"[1]": {"test_system": "α1-acidic glycoprotein (human)", "assay": "detection of glycoprotein by Western blotting with biotin-labeled lectin", "type": "binding", "parameters": "key: ◯: Detected; X: Not detected", "conditions": "(5) α1-acidic glycoprotein (human), N-linked glycan having α1→3 L-fucose; biotin-labeled lectin 2 μg/ml", "method": "PTL of Example 1, SRL of Example 2, AAL of Comparison Example 1, AOL of Comparison Example 2, and LCA of Comparison Example 3 all subjected to biotin-labeling.\nLectin was measured and was dissolved in 0.1 M sodium hydrogen carbonate solution (5 mg/ml). Then, a biotinylation reagent was dissolved in dimethyl sulfoxide and the resultant solution was added to lectin solution to cause reaction therebetween. Then, the reactant was […] and lyophilized, thereby obtain biotin-labeled lectin.\nThe solution obtained by dissolving the glycoprotein sample in 10 mM phosphate buffered saline (pH 7.4, PBS) at 2 mg/ml was dispensed to a microtube by a unit of 18 μl. 6 μl of SDS process liquid (Sample Buffer Solution (2ME−); Wako Pure Chemical Industries, Ltd.) and 1.25 μl of 2-mercaptoethanol (Bio-Rad Laboratories, Inc.) was added to each dispensed fluid and the resultant mixture was boiled for 5 minutes.\nThe film was immersed in 10 mM Tris buffer solution including 0.8% NaCl added with 1% BSA (pH 7.4, 1% BSA+TBS) and was shaken at a room temperature for one hour. Then, the film was cleaned three times by 10 mM Tris buffer solution (pH 7.4, TBS) including 0.8% NaCl. Then, the film was immersed in biotin-labeled lectin solution (2 μg/ml) and was shaken at a room temperature for one hour. Then, the film was cleaned three times by TBS. Then, the film was immersed in the HRP label streptavidin solution at 1 μg/ml (Vector Laboratories) and was shaken at a room temperature for 30 minutes. After the film was cleaned three times by TBS, a POD immunostain set (Wako Pure Chemical Industries, Ltd.) was used to perform a staining test. The staining test is to detect glycoprotein by the western blotting using biotin-labeled lectin. FIG. 13 to FIG. 17 are photographs showing the following glycoproteins stained by PTL (FIG. 13), SRL (FIG. 14), AAL (FIG. 15), AOL (FIG. 16), or LCA (FIG. 17).\nIn FIG. 13 to FIG. 17, the lanes 0 to 6 correspond to the followings. Lane 1: thyroglobulin, lane 2: lactoferrin, lane 3: immune immunoglobulin, lane 4: transferrin, lane 5: α1-acidic glycoprotein, lane 6: invertase, lane 0: bovine serum albumin (control)"}, "[2]": {"molecular_target": "T1, α-fetoprotein (mainly L1-type sugar chain) (Homo sapiens, UniProt P02771)", "T1 construct": "derived from human umbilical cord blood serum; from tissue; host or cells: human umbilical cord blood serum", "T1 sequence (P02771 19-609)": "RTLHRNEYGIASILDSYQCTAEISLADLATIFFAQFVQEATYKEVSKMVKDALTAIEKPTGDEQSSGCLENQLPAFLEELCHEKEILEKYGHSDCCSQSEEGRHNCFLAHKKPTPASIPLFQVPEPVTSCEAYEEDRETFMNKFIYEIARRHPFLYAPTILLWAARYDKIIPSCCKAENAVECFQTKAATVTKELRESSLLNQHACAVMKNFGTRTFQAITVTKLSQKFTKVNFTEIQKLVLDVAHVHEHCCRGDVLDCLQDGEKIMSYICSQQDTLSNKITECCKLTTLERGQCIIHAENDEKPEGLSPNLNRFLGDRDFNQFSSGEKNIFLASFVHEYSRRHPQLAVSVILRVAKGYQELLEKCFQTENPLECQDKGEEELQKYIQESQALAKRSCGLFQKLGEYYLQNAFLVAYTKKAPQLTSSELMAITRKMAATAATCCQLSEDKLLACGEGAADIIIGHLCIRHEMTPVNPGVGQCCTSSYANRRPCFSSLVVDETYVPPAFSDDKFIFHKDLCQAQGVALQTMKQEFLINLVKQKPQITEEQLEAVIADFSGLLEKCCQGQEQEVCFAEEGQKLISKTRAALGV", "assay": "detection of tumor marker sugar chain by ELISA", "type": "binding", "conditions": "α-fetoprotein from human umbilical cord blood serum, coated at 0.01 μg/ml", "description": "(§1) α-fetoprotein (hereinafter referred to as “AFP”) is a glycoprotein included in a blood serum having an N-linked sugar chain. Substantially no AFP exists in the blood serum of a healthy adult. On the other hand, the blood serum of a patient having a benign liver disease has an increased α-fetoprotein L1-type sugar chain (AFP-L1). Furthermore, α-fetoprotein L3-type sugar chain (AFP-L3) is detected in a patient of a liver cancer. Conventionally, the difference in a sugar chain has been measured by LCA and the measurement result has been used for the diagnosis of a liver disease.\n(§2) PTL of Example 1, SRL of Example 2, AAL of Comparison Example 1, AOL of Comparison Example 2, and the LCA of Comparison Example 3 that were biotin-labeled were used to evaluate the binding property of α-fetoprotein by ELISA.\n(§3) 0.1 M carbonic acid buffer solution (pH 9.5) was used to dilute α-fetoprotein (derived from human umbilical cord blood serum, mainly L1-type sugar chain) and α-fetoprotein-L3 (prepared from the culture supernatant of human liver cancer cells) so as to achieve 0.01 μg/ml. Then, the resultant solution was added to a microtiter plate (Nunc) and was incubated at 4 degrees C. one night. After the solution was cleaned by 0.05% Tween/PBS three times, 1% BSA/PBS was added to wells and the solution was incubated at 37 degrees C. for one hour. After the solution was washed by 0.05% Tween/PBS three times, the wells were added with the biotin-labeled lectin solution appropriately diluted by 1% BSA/0.05% Tween/PBS and the solution was incubated at 37 degrees C. for one hour. After the solution was cleaned by 0.05% Tween/PBS three times, HRP labeled streptavidin solution diluted by 1% BSA/0.05% Tween/PBS was added and the solution was incubated at 37 degrees C. for 30 minutes. After the solution was cleaned by 0.05% Tween/PBS three times, TMB Peroxidase substrate system (KPL) was added and the resultant solution was incubated at a room temperature for 10 minutes while light was being blocked. The reaction was stopped by 1 M phosphoric acid. Then, a microplate reader (MPR-A4i, TOSOH CORPORATION) was used to measure the absorbance at 450 nm.\n(§4) The absorbance at 450 nm of the plate on which α-fetoprotein and α-fetoprotein-L3 were caused to react with lectin was measured. Based on this value, the reaction value ([absorbance at 450 nm of a well for which glycoprotein was solid-phased to the plate and reacted]−[absorbance at 450 nm of a well for which glycoprotein was not solid-phased to the plate and reacted]) was calculated. Next, for each lectin, the interaction was calculated. Next, the calculation result of the reaction values is shown in Table 10 and FIG. 24 to FIG. 28."}, "α-fetoprotein-L3": {"molecular_target": "T2, α-fetoprotein-L3 (Homo sapiens, UniProt P02771)", "T2 construct": "prepared from the culture supernatant of human liver cancer cells; endogenous in cells", "T2 sequence (P02771 19-609)": "T1 sequence (P02771 19-609)", "assay": "detection of tumor marker sugar chain by ELISA", "type": "binding", "conditions": "α-fetoprotein-L3 from culture supernatant of human liver cancer cells, coated at 0.01 μg/ml", "description": "as §1, §2, §3, §4"}, "pig erythrocytes": {"test_system": "pig erythrocytes", "assay": "hemagglutinating activity test, pig erythrocytes", "type": "cell-based", "conditions": "for hemagglutinating activity, titer (1.0 mg/ml): lectin 1.0 mg/ml", "description": "The sugar binding specificity of lectin also can be confirmed by using erythrocytes that can be specifically agglutinated by the lectin to investigate the sugar type that may inhibit the agglutination of the erythrocytes and the concentration thereof.\nPTL and SRL were subjected to hagglutinating activity test for rabbit, equine, pig, sheep, human (A, B, O), and actinase E-treated rabbit erythrocytes."}}, "data": [{"molecule": "Aspergillus oryzae lectin [AOL, reference compound]", "values": [{"measurement": "detection of glycoprotein by Western blotting", "setting": "[1]", "result": "X"}, {"measurement": "reaction value (absorbance at 450 nm, blank-subtracted) by ELISA", "setting": "[2]", "result": 0.011}, {"measurement": "reaction value (absorbance at 450 nm, blank-subtracted) by ELISA", "setting": "α-fetoprotein-L3", "result": 0.898}]}, {"molecule": "Pholiota terrestris lectin [PTL, novel L-fucose α1→6 specific lectin purified from the mushroom Pholiota terrestris]", "values": [{"measurement": "Minimum hemagglutinating concentration", "setting": "pig erythrocytes", "result": 20.8, "unit": "µg/mL"}, {"measurement": "hemagglutinating activity, titer (1.0 mg/ml)", "setting": "pig erythrocytes", "result": 16, "unit": "titer"}, {"measurement": "detection of glycoprotein by Western blotting", "setting": "[1]", "result": "X"}, {"measurement": "reaction value (absorbance at 450 nm, blank-subtracted) by ELISA", "setting": "[2]", "result": 0.039}, {"measurement": "reaction value (absorbance at 450 nm, blank-subtracted) by ELISA", "setting": "α-fetoprotein-L3", "result": 1.548}]}, {"molecule": "Stropharia rugosoannulata lectin [SRL, novel L-fucose α1→6 specific lectin purified from the mushroom Stropharia rugosoannulata]", "values": [{"measurement": "Minimum hemagglutinating concentration", "setting": "pig erythrocytes", "result": 10.4, "unit": "µg/mL"}, {"measurement": "hemagglutinating activity, titer (1.0 mg/ml)", "setting": "pig erythrocytes", "result": 32, "unit": "titer"}, {"measurement": "detection of glycoprotein by Western blotting", "setting": "[1]", "result": "X"}, {"measurement": "reaction value (absorbance at 450 nm, blank-subtracted) by ELISA", "setting": "[2]", "result": 0.031}, {"measurement": "reaction value (absorbance at 450 nm, blank-subtracted) by ELISA", "setting": "α-fetoprotein-L3", "result": 1.625}]}, {"molecule": "B1", "values": [{"measurement": "detection of glycoprotein by Western blotting", "setting": "[1]", "result": "X"}, {"measurement": "reaction value (absorbance at 450 nm, blank-subtracted) by ELISA", "setting": "[2]", "result": "−0.049"}, {"measurement": "reaction value (absorbance at 450 nm, blank-subtracted) by ELISA", "setting": "α-fetoprotein-L3", "result": 0.795}]}, {"molecule": "B2", "values": [{"measurement": "detection of glycoprotein by Western blotting", "setting": "[1]", "result": "X"}, {"measurement": "reaction value (absorbance at 450 nm, blank-subtracted) by ELISA", "setting": "[2]", "result": 0.010}, {"measurement": "reaction value (absorbance at 450 nm, blank-subtracted) by ELISA", "setting": "α-fetoprotein-L3", "result": 0.455}]}]}
